From publication PMC8458281, “Computational modeling and experimental validation of the EPI-X4/CXCR4 complex allows rational design of small peptide antagonists” (Communications Biology, 2021) come the findings set out here.

For one series, the system named is zebrafish embryos. As to the kind of experiment: Toxicity assay in zebrafish embryos. The class given is in vivo. The following applies: embryos exposed 24 h from 24 hpf to 3, 30 and 300 µM in E3; scored at 48 hpf for cytotoxicity, developmental toxicity, cardiotoxicity, neurotoxicity; two independent assays, 10 × 3 embryos each. Here is the method:
Finally, we evaluated the toxicity of EPI-X4 JM#21 408–414-NH2 in zebrafish embryos, a widely used in vivo model for toxicity studies. We exposed embryos for 24 h starting at 24 h post fertilization (hpf), when most organ systems have already developed and are functional. Transparency of the embryos allows for evaluation by light microscopy not only of mortality, but also of sublethal cytotoxicity (necrosis, lysis), developmental toxicity (developmental delay, malformations), or toxicity affecting specific organ systems, in particular cardiotoxicity (heart edema, reduced circulation), and neurotoxicity (reduced touch escape response).
Wild-type zebrafish embryos were dechorionated at 24 hpf using digestion with 1 mg/ml pronase (Sigma) in E3 medium ([…]). […] At 48 hpf (after 24 h of incubation) embryos were scored in a stereomicroscope for signs of cytotoxicity (lysis and/or necrosis), developmental toxicity (delay and/or malformations), or cardiotoxicity (heart edema and/or reduced or absent circulation). Each embryo was also touched with a needle, and reduced or absent touch responses (escape movements) were evaluated as signs of neurotoxicity if and only if no signs of cytotoxicity were present in the same embryo. […]
T2: severe damage so that other phenotypes cannot be assessed (L3, L4, Nec2)

Series [1] deals with T1, C-X-C motif chemokine receptor 4 (CXCR4) on SupT1 cells (human (endogenous in SupT1), UniProt P61073 1-352).
T1 construct: CXCR4 as expressed on SupT1 cells; source: endogenous, on SupT1 cells
As to the kind of experiment: flow cytometry on cells; 12G5 antibody competition on SupT1 cells; peptides in PBS with APC-conjugated 12G5 at a concentration close to its EC50, 4 °C, 2 h; MFI normalized to PBS control; IC50 by nonlinear regression. The following applies: one partner purified. On the technique in general: A flow cytometer gives signals particle by particle.

The next series addresses CXCR4 E277A (human, UniProt P61073-1 1-352, E277A). As to the kind of experiment: FACS.
Another series addresses CXCR4 D97E + V112A (human, UniProt P61073-1 1-352, D97E | V112A). Nature of the series: FACS.
For a further series, the target named is CXCR4 D262A (human, UniProt P61073-1 1-352, D262A). Nature of the series: FACS.
The target in the next series is CXCR4 E288A (human, UniProt P61073-1 1-352, E288 to Ala). As to the kind of experiment: FACS.
A further series concerns the target CXCR4 D187E (human, UniProt P61073-1 1-352, D187E). As to the kind of experiment: FACS.
For the next series, the target named is CXCR4 V112A (human, UniProt P61073-1 1-352, V112A). Nature of the series: FACS.
For another series, the target named is CXCR4 D97E (human, UniProt P61073-1 1-352, D97E). As to the kind of experiment: FACS.
CXCR4 D97E, sequence (P61073 whole entry D97E): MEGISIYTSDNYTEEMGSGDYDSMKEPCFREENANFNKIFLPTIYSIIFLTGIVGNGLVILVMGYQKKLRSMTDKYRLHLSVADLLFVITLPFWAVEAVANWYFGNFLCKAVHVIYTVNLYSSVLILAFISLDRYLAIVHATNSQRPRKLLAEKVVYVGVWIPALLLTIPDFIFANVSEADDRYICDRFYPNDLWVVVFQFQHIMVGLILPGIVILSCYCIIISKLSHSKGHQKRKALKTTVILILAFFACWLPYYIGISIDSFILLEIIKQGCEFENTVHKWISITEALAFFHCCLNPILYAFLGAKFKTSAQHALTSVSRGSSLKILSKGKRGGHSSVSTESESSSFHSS
For a further series, the target named is CXCR4 D97S (human, UniProt P61073-1 1-352, D97S). As to the kind of experiment: FACS.
The target of another series is CXCR4 D97E + V112L (human, UniProt P61073-1 1-352, D97E | V112L). Nature of the series: FACS.
CXCR4 D97E + V112L, sequence (P61073 whole entry D97E/V112L): as the sequence (P61073 whole entry D97E) above, with V112L counted along it
The next series addresses CXCR4 D97Q (human, UniProt P61073-1 1-352, D97Q). As to the kind of experiment: FACS.
The next series has as its target CXCR4 D97N (human, UniProt P61073-1 1-352, D97N). As to the kind of experiment: FACS.
For series [2], the target named is T2, CXCR4 wt (transfected 293T cells) (human, UniProt P61073-1 1-352).
T2 chain: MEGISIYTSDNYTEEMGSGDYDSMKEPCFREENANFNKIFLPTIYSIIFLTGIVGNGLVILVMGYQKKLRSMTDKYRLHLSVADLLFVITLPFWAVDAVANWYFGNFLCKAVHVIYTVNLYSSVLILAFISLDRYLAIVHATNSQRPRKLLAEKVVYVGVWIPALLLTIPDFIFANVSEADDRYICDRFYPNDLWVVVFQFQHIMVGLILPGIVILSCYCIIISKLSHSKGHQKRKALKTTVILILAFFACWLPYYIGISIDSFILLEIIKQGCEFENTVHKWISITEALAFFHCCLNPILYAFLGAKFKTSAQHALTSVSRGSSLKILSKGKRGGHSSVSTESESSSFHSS
As to the kind of experiment: FACS.

In another series the target is CXCR4 L41A (human, UniProt P61073-1 1-352, L41A). As to the kind of experiment: FACS.
CXCR4 L41A, sequence (P61073 whole entry L41A): as the sequence (P61073 whole entry D97E) above, with L41A, E97D counted along it
For series [3], the target named is CXCR4 D97E + V112A + L41A (human, UniProt P61073-1 1-352, L41A | D97E | V112A). As to the kind of experiment: FACS.
The next series addresses CXCR4 D97T (human, UniProt P61073-1 1-352, D97T). Nature of the series: FACS.
The target in the next series is CXCR4 V112L (human, UniProt P61073-1 1-352, V112L). Nature of the series: FACS.
CXCR4 V112L, sequence (P61073 whole entry V112L): as the sequence (P61073 whole entry D97E) above, with E97D, V112L counted along it
The next series has as its target CXCR4 E288D (human, UniProt P61073-1 1-352, E288 to Asp). Nature of the series: FACS.
Another series concerns the target CXCR4 V112A + L41A (human, UniProt P61073-1 1-352, L41A | V112A). As to the kind of experiment: FACS.

No end group written: not given here.

CXCR4 D97E + V112A, sequence (P61073 whole entry D97E/V112A): as the sequence (P61073 whole entry D97E) above, with V112A counted along it
CXCR4 D187E, sequence (P61073 whole entry D187E): as the sequence (P61073 whole entry D97E) above, with E97D, D187E counted along it
CXCR4 E288D, sequence (P61073 whole entry E288D): as the sequence (P61073 whole entry D97E) above, with E97D, E288D counted along it
CXCR4 V112A + L41A, sequence (P61073 whole entry L41A/V112A): as the sequence (P61073 whole entry D97E) above, with L41A, E97D, V112A counted along it
CXCR4 E277A, sequence (P61073 whole entry E277A): as the sequence (P61073 whole entry D97E) above, with E97D, E277A counted along it

For ILRWSRK-NH2 [JM#21 408–414-NH2], in the series with zebrafish embryos, the “toxicity in zebrafish embryos” value is “nontoxic even at high concentrations”.

B1: WSC02 (peptide)
peptide: IVRWSKKVPCVS
notes: also called EPI-X4 WSC02; source: synthetic peptide (Fmoc solid-phase synthesis, HPLC-purified)
For B1, the IC50 in series [1] was 539 nM; with CXCR4 E277A, 770 nM; with CXCR4 D97E + V112A, 1690 nM; with CXCR4 D262A, 520 nM; with CXCR4 E288A, more than 100 µM; in the series with CXCR4 D187E, 490 nM. The half-inhibitory concentration (IC50) was 670 nM with CXCR4 V112A; 9.54 µM with CXCR4 D97E; 20.4 µM with CXCR4 D97S; 2000 nM with CXCR4 D97E + V112L; more than 100 µM with CXCR4 D97Q; 527 µM with CXCR4 D97N. Moreover, the half-inhibitory concentration (IC50) was determined as 1130 nM in series [2]; 1710 nM in the series with CXCR4 L41A; 5.77 µM in series [3]; 35.4 µM with CXCR4 D97T; 420 nM with CXCR4 V112L; 83.2 µM with CXCR4 E288D. Further, in the series with CXCR4 V112A + L41A, the IC50 is 4.7 µM.

The IC50 is the concentration needed to halve the response being measured.
